Earlier results on one substance are cited in article PMC6442720.

For the data set, the target named is laminin 10 (Homo sapiens) (UniProt O15230).

Consider integrin α3β1 (from UniProt P26006), for which the Kd was 7.9 nM.

What is called Kd is the concentration at which binding is half-saturated.
